Source: patent US20170343560A1
Each block holds one substance with its values, some of them ahead of it.

Assays:
[1] = target: bispecific effector function silent anti-ANG2/VEGF antibody; assay: bridging ELISA (Ex. 2), ANG2 bridges Bi-drug and Dig-drug; ANG2 25 ng/mL in cynomolgus pool plasma; cut off 0.05
[2] = target: bispecific effector function silent anti-ANG2/VEGF antibody; assay: bridging ELISA (Ex. 2), ANG2 bridges Bi-drug and Dig-drug; ANG2 50 ng/mL in cynomolgus pool plasma; cut off 0.05
[3] = target: bispecific effector function silent anti-ANG2/VEGF antibody; assay: bridging ELISA (Ex. 2), ANG2 bridges Bi-drug and Dig-drug; ANG2 12.5 ng/mL in cynomolgus pool plasma; cut off 0.05
[4] = target: bispecific effector function silent anti-ANG2/VEGF antibody; assay: bridging ELISA (Ex. 2), ANG2 bridges Bi-drug and Dig-drug; ANG2 0.195 ng/mL in cynomolgus pool plasma; cut off 0.05
[5] = target: bispecific effector function silent anti-ANG2/VEGF antibody; assay: bridging ELISA (Ex. 2), ANG2 bridges Bi-drug and Dig-drug; ANG2 0.0977 ng/mL in cynomolgus pool plasma; cut off 0.05
[6] = target: bispecific effector function silent anti-ANG2/VEGF antibody; assay: bridging ELISA (Ex. 2), ANG2 bridges Bi-drug and Dig-drug; ANG2 0.781 ng/mL in cynomolgus pool plasma; cut off 0.05
[7] = target: bispecific effector function silent anti-ANG2/VEGF antibody; assay: bridging ELISA (Ex. 2), ANG2 bridges Bi-drug and Dig-drug; ANG2 0.391 ng/mL in cynomolgus pool plasma; cut off 0.05
[8] = target: bispecific effector function silent anti-ANG2/VEGF antibody; assay: bridging ELISA (Ex. 2), ANG2 bridges Bi-drug and Dig-drug; ANG2 1.56 ng/mL in cynomolgus pool plasma; cut off 0.05
[9] = target: bispecific effector function silent anti-ANG2/VEGF antibody; assay: bridging ELISA (Ex. 2), ANG2 bridges Bi-drug and Dig-drug; ANG2 6.25 ng/mL in cynomolgus pool plasma; cut off 0.05
[10] = target: bispecific effector function silent anti-ANG2/VEGF antibody; assay: bridging ELISA (Ex. 2), ANG2 bridges Bi-drug and Dig-drug; ANG2 3.13 ng/mL in cynomolgus pool plasma; cut off 0.05
[11] = target: bispecific effector function silent anti-ANG2/VEGF antibody; assay: bridging ELISA (Ex. 2), ANG2 bridges Bi-drug and Dig-drug; ANG2 100 ng/mL in cynomolgus pool plasma; cut off 0.05
[12] = target: bispecific effector function silent anti-ANG2/VEGF antibody; assay: bridging ELISA (Ex. 2), ANG2 bridges Bi-drug and Dig-drug; ANG2 0.0489 ng/mL in cynomolgus pool plasma; cut off 0.05
[13] = target: bispecific effector function silent anti-ANG2/VEGF antibody; assay: bridging ELISA (Ex. 2), VEGF bridges Bi-drug and Dig-drug; VEGF 1.56 ng/mL in cynomolgus pool plasma
[14] = target: bispecific effector function silent anti-ANG2/VEGF antibody; assay: bridging ELISA (Ex. 2), VEGF bridges Bi-drug and Dig-drug; VEGF 0.0489 ng/mL in cynomolgus pool plasma; cut off 0.05
[15] = target: bispecific effector function silent anti-ANG2/VEGF antibody; assay: bridging ELISA (Ex. 2), VEGF bridges Bi-drug and Dig-drug; VEGF 100 ng/mL in cynomolgus pool plasma
[16] = target: bispecific effector function silent anti-ANG2/VEGF antibody; assay: bridging ELISA (Ex. 2), VEGF bridges Bi-drug and Dig-drug; VEGF 0.781 ng/mL in cynomolgus pool plasma
[17] = target: bispecific effector function silent anti-ANG2/VEGF antibody; assay: bridging ELISA (Ex. 2), VEGF bridges Bi-drug and Dig-drug; VEGF 3.13 ng/mL in cynomolgus pool plasma
[18] = target: bispecific effector function silent anti-ANG2/VEGF antibody; assay: bridging ELISA (Ex. 2), VEGF bridges Bi-drug and Dig-drug; VEGF 6.25 ng/mL in cynomolgus pool plasma
[19] = target: bispecific effector function silent anti-ANG2/VEGF antibody; assay: bridging ELISA (Ex. 2), VEGF bridges Bi-drug and Dig-drug; VEGF 12.5 ng/mL in cynomolgus pool plasma
[20] = target: bispecific effector function silent anti-ANG2/VEGF antibody; assay: bridging ELISA (Ex. 2), VEGF bridges Bi-drug and Dig-drug; VEGF 0.195 ng/mL in cynomolgus pool plasma; cut off 0.05
[21] = target: bispecific effector function silent anti-ANG2/VEGF antibody; assay: bridging ELISA (Ex. 2), VEGF bridges Bi-drug and Dig-drug; VEGF 0.391 ng/mL in cynomolgus pool plasma
[22] = target: bispecific effector function silent anti-ANG2/VEGF antibody; assay: bridging ELISA (Ex. 2), VEGF bridges Bi-drug and Dig-drug; VEGF 25 ng/mL in cynomolgus pool plasma
[23] = target: bispecific effector function silent anti-ANG2/VEGF antibody; assay: bridging ELISA (Ex. 2), VEGF bridges Bi-drug and Dig-drug; VEGF 50 ng/mL in cynomolgus pool plasma
[24] = target: human Fcgamma receptor I (human) (UniProt P12314); assay: SPR BIAcore T100, Bi-huFcyRI on SA-CAP chip, antibody 10 ug/mL injected 60 s, reference-subtracted response after injection
UniProt P12314, sequence (P12314 16-288 limits assumed): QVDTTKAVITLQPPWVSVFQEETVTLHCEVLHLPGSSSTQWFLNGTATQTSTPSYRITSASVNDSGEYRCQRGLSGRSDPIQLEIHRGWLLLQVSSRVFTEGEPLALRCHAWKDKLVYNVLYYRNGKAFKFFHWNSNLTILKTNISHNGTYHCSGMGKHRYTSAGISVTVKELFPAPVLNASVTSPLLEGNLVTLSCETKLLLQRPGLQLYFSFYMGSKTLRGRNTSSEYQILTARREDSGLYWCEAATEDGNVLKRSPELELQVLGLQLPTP

ANG2, sequence (O15123 19-496 limits assumed): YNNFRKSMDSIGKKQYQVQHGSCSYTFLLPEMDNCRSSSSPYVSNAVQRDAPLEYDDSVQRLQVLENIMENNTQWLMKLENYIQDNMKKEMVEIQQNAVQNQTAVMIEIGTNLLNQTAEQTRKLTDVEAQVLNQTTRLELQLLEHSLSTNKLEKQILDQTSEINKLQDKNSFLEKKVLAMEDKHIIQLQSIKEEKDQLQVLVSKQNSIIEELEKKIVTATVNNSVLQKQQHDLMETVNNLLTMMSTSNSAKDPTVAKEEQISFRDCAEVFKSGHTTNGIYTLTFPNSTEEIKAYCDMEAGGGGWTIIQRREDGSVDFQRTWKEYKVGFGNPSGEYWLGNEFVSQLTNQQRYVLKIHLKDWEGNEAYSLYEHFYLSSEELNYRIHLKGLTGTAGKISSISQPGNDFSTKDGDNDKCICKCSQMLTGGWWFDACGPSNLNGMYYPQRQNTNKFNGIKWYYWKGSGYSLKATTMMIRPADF
VEGF, sequence (P15692 other isoform, or with tags, fused parts or gaps limits assumed): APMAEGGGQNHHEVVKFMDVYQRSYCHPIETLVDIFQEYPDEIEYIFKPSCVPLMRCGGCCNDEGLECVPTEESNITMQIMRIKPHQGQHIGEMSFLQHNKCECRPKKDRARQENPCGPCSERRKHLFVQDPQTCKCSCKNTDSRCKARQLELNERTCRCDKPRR

OD 405 nm [1]: 0.052 OD 405 nm
OD 405 nm [2]: 0.076 OD 405 nm
OD 405 nm [3]: 0.038 OD 405 nm
OD 405 nm [4]: 0.024 OD 405 nm
OD 405 nm [5]: 0.022 OD 405 nm
OD 405 nm [6]: 0.024 OD 405 nm
OD 405 nm [7]: 0.022 OD 405 nm
OD 405 nm [8]: 0.024 OD 405 nm
OD 405 nm [9]: 0.031 OD 405 nm
OD 405 nm [10]: 0.028 OD 405 nm
OD 405 nm [11]: 0.14 OD 405 nm
OD 405 nm [12]: 0.022 OD 405 nm
Substance: ANG2 (from UniProt O15123 19-496) (ligand)

OD 405 nm [13]: 0.138 OD 405 nm
OD 405 nm [14]: 0.025 OD 405 nm
OD 405 nm [15]: 2.83 OD 405 nm
OD 405 nm [16]: 0.083 OD 405 nm
OD 405 nm [17]: 0.274 OD 405 nm
OD 405 nm [18]: 0.51 OD 405 nm
OD 405 nm [19]: 0.921 OD 405 nm
OD 405 nm [20]: 0.039 OD 405 nm
OD 405 nm [21]: 0.058 OD 405 nm
OD 405 nm [22]: 1.69 OD 405 nm
OD 405 nm [23]: 2.34 OD 405 nm
Substance: VEGF (from UniProt P15692 27-191) (ligand)

signal (RU) [24]: 139 RU
Substance: human IgG1 (antibody)

signal (RU) [24]: 1.8 RU
Substance: human IgG1 P329G L234A L235A I253A H310A H434A mutations (antibody)

signal (RU) [24]: 4 RU
Substance: human IgG1 with L234A L235A mutations (antibody)

signal (RU) [24]: 1.5 RU
Substance: human IgG1 with P329G L243A L235A mutations (antibody)

signal (RU) [24]: 20.2 RU
Substance: human IgG4 (antibody)

signal (RU) [24]: 2.6 RU
Substance: human IgG4 with S228P L235E mutations (antibody)

signal (RU) [24]: 5.2 RU
Substance: human IgM (from UniProt P01871 1-453) (antibody)

signal (RU) [24]: 3 RU
Substance: mouse IgG1 (antibody)

signal (RU) [24]: 31.1 RU
Substance: mouse IgG2a (antibody)
